According to patent publication US20220380459A1 (DRAGONFLY THERAPEUTICS, published 2022):
Positions count from the first letter of the chain named.

B1: ADI-11776 Fab (Fab, V domains shown)
VH: EVQLLESGGGLVQPGGSLRLSCAASGFTFSKYTMSWVRQAPGKGLEWVSAIVGSGESTYFADSVKGRFTISRDNSKNTLYLQMNSLRAEDTAVYYCAREGGPYYDSSGYFVYYGMDVWGQGTTVTVSS
VL: DIQMTQSPSTLSASVGDRVTITCRASQSISSWLAWYQQKPGKAPKLLIYKASSLESGVPSRFSGSGSGTEFTLTISSLQPDDFATYYCQQYDDLPTFGGGTKVEIK
notes: Fab fragment; also called Ab3; H76
B2: ADI-11807 Fab (Fab, V domains shown)
VH: EVQLVESGGGLVQPGGSLRLSCAASGFTFGSYWMSWVRQAPGKGLEWVATIKQDGSEKSYVDSVKGRFTISRDNAKNSLYLQMNSLRAEDTAVYYCARPLNAGELDVWGQGTMVTVSS
VL: DIQMTQSPSTLSASVGDRVTITCRASQSISSWLAWYQQKPGKAPKLLIYEASSLESGVPSRFSGSGSGTEFTLTISSLQPDDFATYYCQQSQSYPPITFGGGTKVEIK
notes: Fab fragment; also called Ab5; I07
B3: ADI-11809 Fab (Fab, V domains shown)
VH: B2 VH with G30P, Q53R, S59G
VL: B2 VL
notes: Fab fragment; also called Ab6
B4: ADI-11819 Fab (Fab, V domains shown)
VH: EVQLVESGGGLVKPGGSLRLSCAASGFTFSSYAMSWVRQAPGKGLEWVSSISSSSEGIYYADSVKGRFTISRDNAKNSLYLQMNSLRAEDTAVYYCAREGGPYYDSSGYFVYYGMDVWGQGTTVTVSS
VL: B1 VL with Q27N, K50E, L54T, E55K
notes: Fab fragment; also called Ab8
B5: ADI-10165 Fab (Fab, V domains shown)
VH: EVQLVESGGGLVQPGGSLRLSCAASGFTFSSYWMSWVRQAPGKGLEWVANIKQDGSEKYYVDSVKGRFTISRDNAKNSLYLQMNSLRAEDTAVYYCARDVGPGIAYQGHFDYWGQGTLVTVSS
VL: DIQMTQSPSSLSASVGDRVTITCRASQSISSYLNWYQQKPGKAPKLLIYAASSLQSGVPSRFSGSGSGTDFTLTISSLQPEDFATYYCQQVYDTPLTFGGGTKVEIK
notes: Fab fragment; also called Ab19
B6: ADI-11830 Fab (Fab, V domains shown)
VH: B5 VH with K52N, Q53T, K58V
VL: DIQMTQSPSSLSASVGDRVTITCRASQVIYSYLNWYQQKPGKAPKLLIYAASSLKSGVPSRFSGSGSGTDFTLTISSLQPEDFATYYCQQVYDTPLTFGGGTKVEIK
notes: Fab fragment; also called Ab9
B7: ADI-10158 Fab (Fab, V domains shown)
VH: QVQLQQWGAGLLKPSETLSLTCAVYGGSFSGYYWSWIRQPPGKGLEWIGEIDHSGSTNYNPSLKSRVTISVDTSKNQFSLKLSSVTAADTAVYYCARQGIHGLRYFDLWGRGTLVTVSS
VL: EIVMTQSPATLSLSPGERATLSCRASQSVSSYLAWYQQKPGQAPRLLIYDASNRATGIPARFSGSGSGTDFTLTISSLEPEDFAVYYCQQDHNFPYTFGGGTKVEIK
notes: Fab fragment; also called Ab14
B8: ADI-10168 Fab (Fab, V domains shown)
VH: QVQLVQSGAEVKKPGSSVKVSCKASGGTFSSYAISWVRQAPGQGLEWMGSIIPIFGTANYAQKFQGRVTITADESTSTAYMELSSLRSEDTAVYYCAREVGYGWYTKIAFDIWGQGTMVTVSS
VL: B7 VL with M4L, N53K, D91S, H92S, F94H, Y96S
notes: Fab fragment; also called Ab21
B9: ADI-11819 IgG (antibody, V domains shown)
VH: B4 VH
VL: B1 VL with Q27N, K50E, L54T, E55K
notes: IgG; also called Ab8
B10: ADI-10157 IgG (antibody, V domains shown)
VH: QVQLQESGPGLVKPSETLSLTCTVSGGSISSYYWSWIRQPPGKGLEWIGSIYYSGSTNYNPSLKSRVTISVDTSKNQFSLKLSSVTAADTAVYYCARVGGVYSTIETYGMDVWGQGTTVTVSS
VL: EIVMTQSPATLSVSPGERATLSCRASQSVSSNLAWYQQKPGQAPRLLIYGASTRATGIPARFSGSGSGTEFTLTISSLQSEDFAVYYCQQYTVYPPTFGGGTKVEIK
notes: IgG; also called Ab13
B11: ADI-11835 IgG (antibody, V domains shown)
VH: QLQLQESGPGLVKPSETLSLTCTVSGGSISSTDYYWGWIRQPPGKGLEWIGSIGYSGTYYNPSLKSRVTISVDTSKNQFSLKLSSVTAADTAVYYCARETAHDVHGMDVWGQGTTVTVSS
VL: EIVLTQSPATLSLSPGERATLSCRASHSVYSYLAWYQQKPGQAPRLLIYDASNRATGIPARFSGSGSGTDFTLTISSLEPEDFAVYYCQQYDNLPTFGGGTKVEIK
notes: IgG; also called Ab10; I35
B12: ADI-11839 IgG (antibody, V domains shown)
VH: QVQLVQSGAEVKKPGASVKVSCKASGYTFSNYYMHWVRQAPGQGLEWMGWINPFSGGTRYAQKFQGRVTMTRDTSTSTVYMELSSLRSEDTAVYYCARDVGSSAYYYMDVWGKGTTVTVSS
VL: DIQMTQSPSSVSASVGDRVTITCEASKGISSWLAWYQQKPGKAPKLLIYAASDLQSGVPSRFSGSGSGTDFTLTISSLQPEDFATYYCQQAFLFPPTFGGGTKVEIK
notes: IgG; also called Ab28
B13: Lintuzumab (antibody, V domains shown)
VH: QVQLVQSGAEVKKPGSSVKVSCKASGYTFTDYNMHWVRQAPGQGLEWIGYIYPYNGGTGYNQKFKSKATITADESTNTAYMELSSLRSEDTAVYYCARGRPAMDYWGQGTLVTVSS
VL: DIQMTQSPSSLSASVGDRVTITCRASESVDNYGISFMNWFQQKPGKAPKLLIYAASNQGSGVPSRFSGSGSGTDFTLTISSLQPDDFATYYCQQSKEVPWTFGQGTKVEIK
notes: IgG; also called lintuzumab IgG
B14: Fab fragment from Lintuzumab (Fab, V domains shown)
VH: B13 VH
VL: B13 VL
notes: Fab fragment

What follows are binders tested against T1, C domain of human CD33 (human, UniProt P20138 140-259, limits assumed) (assay: SPR, Fab captured, 37C).
T1 construct: recombinant C domain
Procedure: (§1) Kinetics and affinity of a series of Fab fragments of anti-CD33 antibodies with different CD33 variants (human CD33 ECD, cyno CD33 ECD, V-domain of human CD33, C-domain or human CD33 and selected CD33 SNPs) were assessed by surface plasmon resonance using Biacore 8K instrument (GE Healthcare). Anti-Fab antibody was immobilized on a CMS chip using standard amine coupling chemistry. CD33 FABs were captured on the anti-Fab chip at a density of ˜100 RU. Solutions containing different concentrations of soluble monomeric CD33 or its domains were injected over the captured FABs and control surfaces at 30 μl/min at 37° C. Surfaces were regenerated between cycles by quick injection of 10 mM glycine, pH 1.8. To obtain kinetic rate constants double-referenced data were fit to a 1:1 interaction model using Biacore 8K Evaluation software (GE Healthcare). The equilibrium binding constant KD was determined by the ratio of binding rate constants kd/kₐ.
The binding interface between the Fab fragment of each CD33 antibody to CD33 was mapped.

B1: no binding.
B2: no binding.
B3: no binding.
B4: no binding.
B5: no binding.
B6: no binding.
B7: no binding.
B8: no binding.

Each binder was assayed against T2, human CD33 extracellular domain (human, UniProt P20138 18-259) (assay: BLI Octet, IgG loaded;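 further: IgGs captured on AHC biosensors, exposed to 100 nM antigen for 3 min association then 3 min dissociation in buffer, kinetics fitted with a 1:1 binding model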).
T2 construct: soluble monomeric ECD; also called human CD33 ECD; hCD33
Procedure: Briefly, ForteBio affinity measurements were performed by loading IgGs on-line onto AHC sensors. Sensors were equilibrated off-line in assay buffer for 30 min and then monitored on-line for 60 seconds for baseline establishment. Sensors with loaded IgGs were exposed to 100 nM antigen for 3 minutes, and afterwards were transferred to assay buffer for 3 min for off-rate measurement. All kinetics were analyzed using the 1:1 binding model.

In order of rising Kd:
1. B9  0.243 nM
2. B11  0.281 nM
3. B13  2.21 nM
4. B12  2.45 nM
5. B10  4.2 nM

In order of rising koff:
1. B9  0.0002 s⁻¹
2. B11  0.000237 s⁻¹
3. B10  0.000336 s⁻¹
4. B13  0.000952 s⁻¹
5. B12  0.00172 s⁻¹

In order of rising kon:
1. B10  79900 M⁻¹ s⁻¹
2. B13  431000 M⁻¹ s⁻¹
3. B12  704000 M⁻¹ s⁻¹
4. B9  824000 M⁻¹ s⁻¹
5. B11  844000 M⁻¹ s⁻¹

Each binder was assayed against T2, human CD33 extracellular domain (assay: SPR, Fab captured, 37C).
Procedure: as §1
(§2) Affinity of 29 Fab fragments binding to human and cyno CD33 ECD were assayed by Biacore analysis.

In order of falling Kd:
1. B14  16.7 nM
2. B6  2.75 nM
3. B1  0.78 nM
4. B2  0.29 nM
5. B4  0.02 nM
6. B3  0.0012 nM

In order of falling koff:
1. B14  0.0122 s⁻¹
2. B6  0.00547 s⁻¹
3. B1  0.00124 s⁻¹
4. B2  0.000332 s⁻¹
5. B4  5.65e-05 s⁻¹
6. B3  1.23e-06 s⁻¹

In order of falling kon:
1. B4  2.84e+06 M⁻¹ s⁻¹
2. B6  1.99e+06 M⁻¹ s⁻¹
3. B1  1.6e+06 M⁻¹ s⁻¹
4. B2  1.14e+06 M⁻¹ s⁻¹
5. B3  1.02e+06 M⁻¹ s⁻¹
6. B14  735000 M⁻¹ s⁻¹

What follows are binders tested against T3, cyno CD33 extracellular domain (Cynomolgus/Rhesus (cyno)) (assay: SPR, Fab captured, 37C;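 further: surface plasmon resonance with Fabs captured on anti-Fab surface, soluble monomeric CD33 as analyte at several concentrations, double-referenced 1:1 model fit, KD as koff/kon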).
T3 construct: soluble monomeric ECD; also called cyno CD33 ECD
Procedure: as §1, §2

In order of rising Kd:
1. B3  0.118 nM
2. B2  0.15 nM
3. B1  1.81 nM
4. B4  4.96 nM
5. B6  27.8 nM

In order of rising koff:
1. B3  0.000126 s⁻¹
2. B2  0.000151 s⁻¹
3. B1  0.00472 s⁻¹
4. B4  0.019 s⁻¹
5. B6  0.0364 s⁻¹

In order of rising kon:
1. B2  998000 M⁻¹ s⁻¹
2. B3  1.06e+06 M⁻¹ s⁻¹
3. B6  1.34e+06 M⁻¹ s⁻¹
4. B1  2.62e+06 M⁻¹ s⁻¹
5. B4  3.82e+06 M⁻¹ s⁻¹

B5: no binding (tested: 100 nM).
B14: no binding (tested: 100 nM).
B7: no binding (tested: 100 nM).
B8: no binding (tested: 100 nM).

Molecular target: T2, human CD33 extracellular domain
Test: SPR, Fab captured, 37C
Remark: another data set of the same source
Procedure: as §1

In order of rising Kd:
1. B3  0.0012 nM
2. B4  0.02 nM
3. B2  0.29 nM
4. B1  0.78 nM
5. B6  2.75 nM

In order of rising koff:
1. B3  1.23e-06 s⁻¹
2. B4  5.65e-05 s⁻¹
3. B2  0.000332 s⁻¹
4. B1  0.00124 s⁻¹
5. B6  0.00547 s⁻¹

In order of falling kon:
1. B4  2.84e+06 M⁻¹ s⁻¹
2. B6  1.99e+06 M⁻¹ s⁻¹
3. B1  1.6e+06 M⁻¹ s⁻¹
4. B2  1.14e+06 M⁻¹ s⁻¹
5. B3  1.02e+06 M⁻¹ s⁻¹

Each binder was assayed against T4, V domain of human CD33 (human, UniProt P20138 18-139, limits assumed) (assay: SPR, Fab captured, 37C).
T4 construct: recombinant, fully glycosylated V domain; also called Human CD33 V domain
Procedure: as §1

In order of falling Kd:
1. B7  127 nM
2. B6  4.5 nM
3. B1  0.33 nM
4. B3  0.3 nM
5. B2  0.28 nM
6. B4  0.14 nM

In order of falling koff:
1. B7  0.133 s⁻¹
2. B6  0.0299 s⁻¹
3. B1  0.00143 s⁻¹
4. B4  0.000916 s⁻¹
5. B2  0.000847 s⁻¹
6. B3  0.000769 s⁻¹

In order of rising kon:
1. B7  1.04e+06 M⁻¹ s⁻¹
2. B3  2.6e+06 M⁻¹ s⁻¹
3. B2  3.07e+06 M⁻¹ s⁻¹
4. B1  4.52e+06 M⁻¹ s⁻¹
5. B6  6.67e+06 M⁻¹ s⁻¹
6. B4  6.75e+06 M⁻¹ s⁻¹

B8: no binding.

Molecular target: T4, V domain of human CD33
Test: SPR, Fab captured, 37C
Remark: another data set of the same source
Procedure: as §1
(§3) The ability of anti-CD33 antibodies to recognize glycosylated CD33 was assayed. […] De-glycosylation status was confirmed by a shift on SDS-PAGE and MS.

In order of rising Kd:
1. B4  0.14 nM
2. B2  0.28 nM
3. B3  0.3 nM
4. B1  0.33 nM
5. B6  4.5 nM
6. B7  127 nM

In order of falling koff:
1. B7  0.133 s⁻¹
2. B6  0.0299 s⁻¹
3. B1  0.00143 s⁻¹
4. B4  0.000916 s⁻¹
5. B2  0.000847 s⁻¹
6. B3  0.000769 s⁻¹

In order of falling kon:
1. B4  6.75e+06 M⁻¹ s⁻¹
2. B6  6.67e+06 M⁻¹ s⁻¹
3. B1  4.52e+06 M⁻¹ s⁻¹
4. B2  3.07e+06 M⁻¹ s⁻¹
5. B3  2.6e+06 M⁻¹ s⁻¹
6. B7  1.04e+06 M⁻¹ s⁻¹

These binders were tested against T5, deglycosylated V domain of human CD33 (human, UniProt P20138 18-139, limits assumed, N-glycans removed by PNGase) (assay: SPR, Fab captured, 37C).
T5 construct: V domain deglycosylated by PNGase before testing; also called deglycosylated V CD33
Procedure: as §1, §3

In order of falling Kd:
1. B5  156 nM
2. B7  88.1 nM
3. B6  3.95 nM
4. B1  0.28 nM
5. B3  0.21 nM
6. B2  0.19 nM
7. B4  0.11 nM

In order of rising koff:
1. B3  0.000711 s⁻¹
2. B2  0.000745 s⁻¹
3. B4  0.00103 s⁻¹
4. B1  0.00136 s⁻¹
5. B6  0.0269 s⁻¹
6. B5  0.203 s⁻¹
7. B7  0.231 s⁻¹

In order of rising kon:
1. B5  1.3e+06 M⁻¹ s⁻¹
2. B7  2.63e+06 M⁻¹ s⁻¹
3. B3  3.4e+06 M⁻¹ s⁻¹
4. B2  3.9e+06 M⁻¹ s⁻¹
5. B1  4.85e+06 M⁻¹ s⁻¹
6. B6  6.8e+06 M⁻¹ s⁻¹
7. B4  9.15e+06 M⁻¹ s⁻¹

B8: no binding.

Molecular target: T2, human CD33 extracellular domain
Test: SPR, Fab captured, 37C
Remark: another data set of the same source
Procedure: as §1, §2

In order of rising Kd:
1. B3  0.0012 nM
2. B4  0.02 nM
3. B2  0.29 nM
4. B1  0.78 nM
5. B6  2.75 nM

In order of rising koff:
1. B3  1.23e-06 s⁻¹
2. B4  5.65e-05 s⁻¹
3. B2  0.000332 s⁻¹
4. B1  0.00124 s⁻¹
5. B6  0.00547 s⁻¹

In order of falling kon:
1. B4  2.84e+06 M⁻¹ s⁻¹
2. B6  1.99e+06 M⁻¹ s⁻¹
3. B1  1.6e+06 M⁻¹ s⁻¹
4. B2  1.14e+06 M⁻¹ s⁻¹
5. B3  1.02e+06 M⁻¹ s⁻¹
